Assay results as given in patent publication US20180044415A1 (AbbVie / Abbott, published 2018).
Numbering of substitutions follows the chain as printed.

B1: SC16.23 (antibody, V domains shown)
VH: QVTLKESGPGILQPSQTLSLTCSFSGFSLSTSNTGIGWIRQPSGTGLEWLAHIWWNDDKYYNPSLKSRLTISKETSNNQVFLKITNVDTADTASYFCVQIGRDYSNYAWYFDVWGAGTTVTVSS
VL: QIVLTQSPAIMSASPGEKVTLTCSASSSVSSRYLYWYQQKPGSSPKLWIYSTSNLASGVPARFSGSGSGTSYSLIISSMEAEDAASYFCHQWSNYPLTFGAGTKLELK
notes: murine mAb; variable regions only
B2: SC16.34 (antibody, V domains shown)
VH: QIQLVQSGPELKRPGETVKISCKASGYTFTNYGMNWVKQAPGKGLKWMGWINTYTGDPTYADDFKGRFAFSLETSASTAYLQINNLKNEDTATYFCARIGGNSPSDYWGQGTSLTVSS
VL: SIVMTQTPKFLLVSAGDRVTITCKASQSVSNDVAWYQQKPGQSPKLLIYYASNRYSGVPDRFTGSGYGTDFTFTISTVQAEDLAVYFCQQDYSSPWTFGGGTKLEIK
notes: as for B1
B3: SC16.56 (antibody, V domains shown)
VH: B2 VH with R13K, G49A, D57E, Y80S, N84I, G101D, N102S, S113T
VL: B2 VL with A34V, S56T, T63A, T72S, S93T, K107R
notes: as for B1

Legend:
[1] = target: T1, DLL3 extracellular domain (amino acids 27-466) displayed on yeast (human, UniProt Q9NYJ7 27-466); assay: fine epitope mapping
T1 construct: Yeast surface display construct with HA tag; also called DLL3 ECD; wild type DLL3 ECD
T1 sequence: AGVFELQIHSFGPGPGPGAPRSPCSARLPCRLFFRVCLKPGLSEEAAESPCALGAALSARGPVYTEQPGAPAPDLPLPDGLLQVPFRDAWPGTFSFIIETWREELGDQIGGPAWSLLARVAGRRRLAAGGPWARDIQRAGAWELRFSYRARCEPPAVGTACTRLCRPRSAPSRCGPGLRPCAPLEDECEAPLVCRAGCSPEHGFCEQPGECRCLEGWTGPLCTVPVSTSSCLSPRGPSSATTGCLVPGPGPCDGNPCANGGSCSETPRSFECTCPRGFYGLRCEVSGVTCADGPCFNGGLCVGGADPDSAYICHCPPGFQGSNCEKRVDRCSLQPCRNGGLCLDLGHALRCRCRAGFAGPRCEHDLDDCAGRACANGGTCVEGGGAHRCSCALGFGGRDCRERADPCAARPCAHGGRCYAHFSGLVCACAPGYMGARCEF
Experimental: To test for binding to a particular construct, 200,000 induced yeast cells expressing the desired construct were washed twice in PBS+1 mg/mL BSA (PBSA), and incubated in 50 μL of PBSA with biotinylated anti-HA clone 3F10 (Roche Diagnostics) at 0.1 μg/mL and either 50 nM purified antibody or 1:2 dilution of unpurified supernatant from hybridomas cultured for 7 days. Cells were incubated for 90 minutes on ice, followed by two washes in PBSA. Cells were then incubated in 50 μL PBSA with the appropriate secondary antibodies: for murine antibodies, Alexa 488 conjugated streptavidin, and Alexa 647 conjugated goat anti mouse (Life Technologies) were added at 1 μg/mL each; and for humanized or chimeric antibodies, Alexa 647 conjugated streptavidin (Life Technologies) and R-phycoerythrin conjugated goat anti human (Jackson Immunoresearch) were added at 1 μg/mL each. After a twenty minute incubation on ice, cells were washed twice with PBSA and analyzed on a FACS Canto II. Antibodies that bound to DLL3-DLL1 chimera were designated as binding to the N-terminal region+DSL. Antibodies that bound specifically to an epitope present on a particular EGF-like domain were designated as binding to its respective domain (FIG. 2.)
Alternatively, a yeast display method (Chao et al., 2007, PMID: 17406305) was used to map the epitopes of selected antibodies. Libraries of DLL3 ECD mutants were generated with error prone PCR using nucleotide analogues 8-oxo-2′deoxyguanosine-5′-triphosphate and 2′-deoxy-p-nucleoside-5′triphosphate (TriLink Bio) for a target mutagenesis rate of one amino acid mutation per clone. These were transformed into a yeast display format. Using the technique described above for domain-level mapping, the library was stained for HA and antibody binding at 50 nM. […] These clones were re-grown, and subjected to another round of FACS sorting for loss of binding to the target antibody. Using the Zymoprep Yeast Plasmid Miniprep kit (Zymo Research), individual ECD clones were isolated and sequenced. […]

[2] = target: T2, human DLL3 (immobilized human DLL3 or h293-hDLL3 cells) (human, UniProt Q9NYJ7 27-492, limits assumed); assay: hybridoma screening on immobilized human DLL3 or on h293-hDLL3 cells
T2 construct: the sentence says 'immobilized human DLL3 or h293-hDLL3 cells'
T2 sequence: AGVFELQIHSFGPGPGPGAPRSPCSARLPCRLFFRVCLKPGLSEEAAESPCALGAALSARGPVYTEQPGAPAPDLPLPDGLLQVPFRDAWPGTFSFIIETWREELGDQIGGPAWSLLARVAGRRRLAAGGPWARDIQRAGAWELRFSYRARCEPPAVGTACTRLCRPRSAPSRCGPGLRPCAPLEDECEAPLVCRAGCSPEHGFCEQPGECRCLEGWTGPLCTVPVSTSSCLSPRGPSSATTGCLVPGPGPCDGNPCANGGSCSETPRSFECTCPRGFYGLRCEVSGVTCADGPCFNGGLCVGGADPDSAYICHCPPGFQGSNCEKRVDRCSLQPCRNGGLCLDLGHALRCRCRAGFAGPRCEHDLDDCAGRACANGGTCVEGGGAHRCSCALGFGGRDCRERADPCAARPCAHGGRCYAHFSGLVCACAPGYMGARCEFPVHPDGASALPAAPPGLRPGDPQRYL

Row | Binder | binding result [1] | binding result [2]
1 | B1 | binds | binds
2 | B2 | binds | binds
3 | B3 | binds | binds
